Results taken from patent publication US20240417475A1 (AFFIMED, published 2024).

What was measured:
[1] = target: T1, cynomolgus CD16 expressed on CHO cells (cAg_36) (cynomolgus, UniProt Q8SPW2 17-254); assay: flow cytometry on cyCD16 CHO cells (cAg_36), one-site fit of MFI, mean
T1 construct: whole, on cells; also called cyCD16
Experimental: (§1) After washing in FACS buffer, cells were incubated in 50 μL FACS buffer without antibodies or with titrated antibodies starting at a concentration of 1000 nM followed by elven 3-fold serial dilutions for 40-50 min on ice in the dark. […] After washing, binding was measured by flow cytometry and mean fluorescence intensities (MFI) of cell samples were calculated and corrected for background staining using control cells stained with secondary antibodies only.
(§2) Equilibrium dissociation constants (KD) of antibody binding were calculated by plotting MFI values and fitting a non-linear regression model for one-site binding to hyperbolic dose-response curves using GraphPad Prism.

[2] = target: T1, cynomolgus CD16 expressed on CHO cells …; assay: flow cytometry on cyCD16 CHO cells (cAg_36), one-site fit of MFI, Exp. 1
Experimental: as §1, §2

[3] = target: T1, cynomolgus CD16 expressed on CHO cells …; assay: flow cytometry on cyCD16 CHO cells (cAg_36), one-site fit of MFI, Exp. 2
Experimental: as §1, §2

[4] = target: T1, cynomolgus CD16 expressed on CHO cells …; assay: flow cytometry on cyCD16 CHO cells (cAg_36), one-site fit of MFI, Exp. 3
Experimental: as §1, §2

[5] = target: T2, cynomolgus FOLR1 expressed on CHO cells (cAg_126) (cynomolgus, UniProt A0A2K5U044 25-234); assay: flow cytometry on cyFOLR1 CHO cells (cAg_126), one-site fit of MFI, mean
T2 construct: whole, on cells; also called cyFOLR1
Experimental: (§3) To analyze binding of different antibody constructs to CHO cells transfected with human FOLR1 (cAg_125) and cynomolgus FOLR1 (cAg_126), 1-5×10⁵ were resuspended in 100 μL FACS buffer (PBS (BioWest, cat.: L0615-500) containing 2% heat-inactivated FCS (Invitrogen, cat.: 10500-064), and 0.1% sodium azide (Sigma, cat.: S8032_100G)) in round-bottom 96-well microtiter plates. After washing in FACS buffer, cells were incubated in 50 μL FACS buffer without antibodies or with titrated antibodies starting at a concentration of 1000 nM followed by eleven 3-fold serial dilutions for 40-50 min on ice in the dark. […] After washing, binding was measured by flow cytometry and mean fluorescence intensities (MFI) of cell samples were calculated and corrected for background staining using control cells stained with secondary antibodies only.
as §2, with “Binding of antibody constructs to huFOLR1-as well as cyFOLR1-transfected CHO cells was measured by flow cytometry. Equilibrium” for “Equilibrium”

[6] = target: T3, human FOLR1 expressed on CHO cells (cAg_125) (human, UniProt P15328 25-234); assay: flow cytometry on huFOLR1 CHO cells (cAg_125), one-site fit of MFI, mean
T3 construct: whole, on cells; also called huFOLR1
Experimental: as §3
as §2, with “Binding of antibody constructs to huFOLR1-as well as cyFOLR1-transfected CHO cells was measured by flow cytometry. Equilibrium” for “Equilibrium”

[7] = target: T2, cynomolgus FOLR1 expressed on CHO cells …; assay: flow cytometry on cyFOLR1 CHO cells (cAg_126), one-site fit of MFI, Exp. 2
Experimental: as §3
as §2, with “Binding of antibody constructs to huFOLR1-as well as cyFOLR1-transfected CHO cells was measured by flow cytometry. Equilibrium” for “Equilibrium”

[8] = target: T2, cynomolgus FOLR1 expressed on CHO cells …; assay: flow cytometry on cyFOLR1 CHO cells (cAg_126), one-site fit of MFI, Exp. 3
Experimental: as §3
as §2, with “Binding of antibody constructs to huFOLR1-as well as cyFOLR1-transfected CHO cells was measured by flow cytometry. Equilibrium” for “Equilibrium”

[9] = target: T3, human FOLR1 expressed on CHO cells …; assay: flow cytometry on huFOLR1 CHO cells (cAg_125), one-site fit of MFI, Exp. 1
Experimental: as §3
as §2, with “Binding of antibody constructs to huFOLR1-as well as cyFOLR1-transfected CHO cells was measured by flow cytometry. Equilibrium” for “Equilibrium”

[10] = target: T4, human CD16A (158V) expressed on CHO cells (cAg_35) (human, UniProt P08637 17-254); assay: flow cytometry on huCD16A (158V) CHO cells (cAg_35), one-site fit of MFI, mean
T4 construct: also called huCD16A (158V)
Experimental: as §1, §2

[11] = target: T4, human CD16A (158V) expressed on CHO …; assay: flow cytometry on huCD16A (158V) CHO cells (cAg_35), one-site fit of MFI, Exp. 1
Experimental: as §1, §2

[12] = target: T4, human CD16A (158V) expressed on CHO …; assay: flow cytometry on huCD16A (158V) CHO cells (cAg_35), one-site fit of MFI, Exp. 2
Experimental: as §1, §2

[13] = target: T4, human CD16A (158V) expressed on CHO …; assay: flow cytometry on huCD16A (158V) CHO cells (cAg_35), one-site fit of MFI, Exp. 3
Experimental: as §1, §2

[14] = target: T1, cynomolgus CD16 expressed on CHO cells …; assay: flow cytometry on cyCD16-transfected CHO cells (cAg_36), on ice, FITC goat anti-human IgG detection
Experimental: as §1

[15] = target: T3, human FOLR1 expressed on CHO cells …; assay: flow cytometry on huFOLR1-transfected CHO cells (cAg_125), on ice, FITC goat anti-human IgG detection
Experimental: as §3

[16] = target: T5, human CD16A (158F) expressed on CHO cells (cAg_34) (human, UniProt P08637 17-254); assay: flow cytometry on huCD16A (158F)-transfected CHO cells (cAg_34), on ice, FITC goat anti-human IgG detection
T5 construct: also called huCD16A-transfected CHO cells
Experimental: as §1

[17] = target: T4, human CD16A (158V) expressed on CHO …; assay: flow cytometry on huCD16A (158V)-transfected CHO cells (printed sAg_35), on ice, FITC goat anti-human IgG detection
Experimental: as §1

T1 sequence (Q8SPW2 17-254): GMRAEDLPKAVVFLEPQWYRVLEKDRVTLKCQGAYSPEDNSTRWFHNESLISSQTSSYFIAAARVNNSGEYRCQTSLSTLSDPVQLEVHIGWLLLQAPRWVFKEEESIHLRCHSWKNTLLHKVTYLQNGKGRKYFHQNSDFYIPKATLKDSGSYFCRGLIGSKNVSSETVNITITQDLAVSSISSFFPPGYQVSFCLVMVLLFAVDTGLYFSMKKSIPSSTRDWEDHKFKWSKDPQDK
T3 sequence (P15328 25-234): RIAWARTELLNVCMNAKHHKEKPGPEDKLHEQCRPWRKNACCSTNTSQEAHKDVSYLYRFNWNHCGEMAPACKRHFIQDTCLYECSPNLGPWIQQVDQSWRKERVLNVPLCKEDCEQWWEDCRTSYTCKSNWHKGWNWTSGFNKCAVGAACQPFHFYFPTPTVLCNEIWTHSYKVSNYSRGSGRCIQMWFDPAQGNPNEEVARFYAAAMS
T4 sequence (P08637 17-254 F176V limits assumed): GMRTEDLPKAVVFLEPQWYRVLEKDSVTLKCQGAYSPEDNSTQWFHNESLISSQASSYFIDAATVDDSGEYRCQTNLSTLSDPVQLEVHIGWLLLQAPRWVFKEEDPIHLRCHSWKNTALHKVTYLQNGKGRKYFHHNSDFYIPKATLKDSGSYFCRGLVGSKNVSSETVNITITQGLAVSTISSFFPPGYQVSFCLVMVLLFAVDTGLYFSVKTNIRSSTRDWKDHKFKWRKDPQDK
T2 sequence (A0A2K5U044 entry or part of it): as the sequence (P15328 25-234) above, with I2T, W4R, R37K, A146P, H171Y counted along it
T5 sequence (P08637 17-254 limits assumed): as the sequence (P08637 17-254 F176V limits assumed) above, with V160F counted along it

B1: scFv-IgAb_387 (FOLR1_1×CD16a3) (bispecific antibody)
heavy: EVQLVESGGGVVQPGRSLRLSCSASGFTFSGYGLSWVRQAPGKGLEWVAMISSGGSYTYYADSVKGRFAISRDNAKNTLFLQMDSLRPEDTGVYFCARHGDDPAWFAYWGQGTPVTVSSASTKGPSVFPLAPSSKSTSGGTAALGCLVKDYFPEPVTVSWNSGALTSGVHTFPAVLQSSGLYSLSSVVTVPSSSLGTQTYICNVNHKPSNTKVDKKVEPKSCDKTHTCPPCPAPEFEGGPSVFLFPPKPKDTLMISRTPEVTCVVVAVSHEDPEVKFNWYVDGVEVHNAKTKPREEQYNSTYRVVSVLTVLHQDWLNGKEYKCKVSNKALPAPIEKTISKAKGQPREPQVYTLPPSREEMTKNQVSLTCLVKGFYPSDIAVEWESNGQPENNYKTTPPVLDSDGSFFLYSKLTVDKSRWQQGNVFSCSVMHEALHNHYTQKSLSLSPGGGGGSGGGGSGGGGSGGGGSGGGGSGGGGSSYELTQPLSVSVALGQTARITCGGNNIGSKSVHWYQQKPGQAPVLVIYQDKKRPSGIPERFSGSNSGNTATLTISRAQAGDEADYYCQVWDDYIVLFGCGTKLTVLGGSGGSGGSGGSGGSGGSGGSQVQLVQSGAEVKKPGASVKVSCKASGYTFTNYYMQWVRQAPGQCLEWMGIINPSGGVTSYAQKFQGRVTMTRDTSTSTVYMELSSLRSEDTAVYYCARGSAYYYDFADYWGQGTLVTVSSG
light: DIQLTQSPSSLSASVGDRVTITCSVSSSISSNNLHWYQQKPGKAPKPWIYGTSNLASGVPSRFSGSGSGTDYTFTISSLQPEDIATYYCQQWSSYPYMYTFGQGTKVEIKRTVAAPSVFIFPPSDEQLKSGTASVVCLLNNFYPREAKVQWKVDNALQSGNSQESVTEQDSKDSTYSLSSTLTLSKADYEKHKVYACEVTHQGLSSPVTKSFNRGEC
modifications: Chemically biotinylated (NHS-PEG4-biotin) in Example 22 only.
notes: Tetravalent bispecific scFv-IgAb; also called FOLR1×CD16A scFv-IgAb_387; FOLR1/CD16A scFv-IgAb_387; copies: 2 + 2
Work on B1 yielded a Kd [1] of 25.2 nM, a Kd [2] of 26.6 nM and a Kd [3] of 26.2 nM. For the same binder, the Kd [4] was 22.8 nM, the Kd [5] was 16.3 nM and the Kd [6] was 35.8 nM. For the same binder, the Kd [7] was 15.3 nM, the Kd [8] was 18.8 nM and the Kd [9] was 35.1 nM. It also gave a Kd [10] of 30.8 nM, a Kd [11] of 15.8 nM and a Kd [12] of 29.1 nM. The Kd [13] was 47.5 nM, the “EC50 (read off the curve)” value [14] was ~30 nM and the “EC50 (read off the curve)” value [15] was ~40 nM. For the same binder, the “EC50 (read off the curve)” value [16] was ~20 nM and the “EC50 (read off the curve)” value [17] was ~50 nM.

B2: scFv-IgAb_381 (FOLR1_1×CD16a4) (bispecific antibody)
chain 1: EVQLVESGGGVVQPGRSLRLSCSASGFTFSGYGLSWVRQAPGKGLEWVAMISSGGSYTYYADSVKGRFAISRDNAKNTLFLQMDSLRPEDTGVYFCARHGDDPAWFAYWGQGTPVTVSSASTKGPSVFPLAPSSKSTSGGTAALGCLVKDYFPEPVTVSWNSGALTSGVHTFPAVLQSSGLYSLSSVVTVPSSSLGTQTYICNVNHKPSNTKVDKKVEPKSCDKTHTCPPCPAPEFEGGPSVFLFPPKPKDTLMISRTPEVTCVVVAVSHEDPEVKFNWYVDGVEVHNAKTKPREEQYNSTYRVVSVLTVLHQDWLNGKEYKCKVSNKALPAPIEKTISKAKGQPREPQVYTLPPSREEMTKNQVSLTCLVKGFYPSDIAVEWESNGQPENNYKTTPPVLDSDGSFFLYSKLTVDKSRWQQGNVFSCSVMHEALHNHYTQKSLSLSPGGGGGSGGGGSGGGGSGGGGSGGGGSGGGGSSYELTQPLSVSVALGQTARITCGGHNIGSKNVHWYQQKPGQAPVLVIYQDNKRPSGIPERFSGSNSGNTATLTISRAQAGDEADYYCQVWDNYNVLFGCGTKLTVLGGSGGSGGSGGSGGSGGSGGSQVQLVQSGAEVKKPGASVKVSCKASGYTFTSYYMHWVRQAPGQCLEWMGAIEPTYGSTSYAQKFQGRVTMTRDTSTSTVYMELSSLRSEDTAVYYCARGSAYYYDFADYWGQGTLVTVS
chain 2: B1 light
notes: also called FOLR1×CD16A scFv-IgAb_381
In the case of B2, the Kd [1] is reported as 32.8 nM, the Kd [2] is reported as 38.6 nM and the Kd [3] is reported as 31.7 nM. For the same binder, the Kd [4] was 28.2 nM, the Kd [5] was 12.4 nM and the Kd [6] was 24.7 nM. It also gave a Kd [7] of 11.8 nM, a Kd [8] of 14 nM and a Kd [9] of 20.3 nM. The Kd [10] was 43 nM, the Kd [11] was 22 nM and the Kd [12] was 43.3 nM. The Kd [13] was 63.7 nM, the “EC50 (read off the curve)” value [14] was ~40 nM and the “EC50 (read off the curve)” value [15] was ~30 nM. The “EC50 (read off the curve)” value [16] was ~30 nM and the “EC50 (read off the curve)” value [17] was ~60 nM.
